Measurements from patent US7238668B1, “Inhibition of lymphocyte adherence with CS-1-peptides and fragments thereof” (Fred Hutchinson Cancer Research Center, priority 1989, dated 2007).
Read-outs that look alike come from different tables or passages of the source.

Columns and labels:
[1] = target: integrin β1 subunit (human) (UniProt P05556); experiment: cell-based or functional assay
integrin receptor α4β1 [2] = target: T1, integrin receptor α4β1 (human, UniProt P13612 34-1032; P05556 21-798); experiment: cell-based or functional assay
T1 sequence (P13612 34-1032, form in doubt, chain 1 of 2): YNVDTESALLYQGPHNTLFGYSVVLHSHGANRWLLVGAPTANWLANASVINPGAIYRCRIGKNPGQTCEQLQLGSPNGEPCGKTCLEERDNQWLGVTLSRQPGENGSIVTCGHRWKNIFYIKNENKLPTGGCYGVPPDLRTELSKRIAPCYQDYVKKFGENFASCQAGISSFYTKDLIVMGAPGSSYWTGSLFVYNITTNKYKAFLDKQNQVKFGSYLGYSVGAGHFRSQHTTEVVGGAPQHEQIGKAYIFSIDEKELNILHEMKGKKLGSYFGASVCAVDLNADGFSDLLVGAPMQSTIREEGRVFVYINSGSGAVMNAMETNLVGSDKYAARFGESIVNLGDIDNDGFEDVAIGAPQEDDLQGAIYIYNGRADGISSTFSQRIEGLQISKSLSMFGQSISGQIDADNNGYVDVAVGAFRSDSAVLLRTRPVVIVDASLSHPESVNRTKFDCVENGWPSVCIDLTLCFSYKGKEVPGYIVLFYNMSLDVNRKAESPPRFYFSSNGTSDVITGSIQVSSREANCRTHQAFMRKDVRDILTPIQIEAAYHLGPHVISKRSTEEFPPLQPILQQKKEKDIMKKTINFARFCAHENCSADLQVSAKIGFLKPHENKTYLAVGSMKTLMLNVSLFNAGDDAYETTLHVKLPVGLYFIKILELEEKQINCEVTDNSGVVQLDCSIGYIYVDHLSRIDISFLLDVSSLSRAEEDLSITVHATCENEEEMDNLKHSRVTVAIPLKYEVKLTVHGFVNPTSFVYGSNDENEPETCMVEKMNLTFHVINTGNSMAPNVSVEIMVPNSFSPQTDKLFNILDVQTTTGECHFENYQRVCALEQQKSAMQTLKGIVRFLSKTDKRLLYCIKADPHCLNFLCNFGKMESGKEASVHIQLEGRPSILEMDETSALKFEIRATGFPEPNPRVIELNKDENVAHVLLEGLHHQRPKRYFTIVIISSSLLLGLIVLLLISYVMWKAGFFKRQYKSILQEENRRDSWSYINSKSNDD
T1 sequence (P05556 21-798, form in doubt, chain 2 of 2): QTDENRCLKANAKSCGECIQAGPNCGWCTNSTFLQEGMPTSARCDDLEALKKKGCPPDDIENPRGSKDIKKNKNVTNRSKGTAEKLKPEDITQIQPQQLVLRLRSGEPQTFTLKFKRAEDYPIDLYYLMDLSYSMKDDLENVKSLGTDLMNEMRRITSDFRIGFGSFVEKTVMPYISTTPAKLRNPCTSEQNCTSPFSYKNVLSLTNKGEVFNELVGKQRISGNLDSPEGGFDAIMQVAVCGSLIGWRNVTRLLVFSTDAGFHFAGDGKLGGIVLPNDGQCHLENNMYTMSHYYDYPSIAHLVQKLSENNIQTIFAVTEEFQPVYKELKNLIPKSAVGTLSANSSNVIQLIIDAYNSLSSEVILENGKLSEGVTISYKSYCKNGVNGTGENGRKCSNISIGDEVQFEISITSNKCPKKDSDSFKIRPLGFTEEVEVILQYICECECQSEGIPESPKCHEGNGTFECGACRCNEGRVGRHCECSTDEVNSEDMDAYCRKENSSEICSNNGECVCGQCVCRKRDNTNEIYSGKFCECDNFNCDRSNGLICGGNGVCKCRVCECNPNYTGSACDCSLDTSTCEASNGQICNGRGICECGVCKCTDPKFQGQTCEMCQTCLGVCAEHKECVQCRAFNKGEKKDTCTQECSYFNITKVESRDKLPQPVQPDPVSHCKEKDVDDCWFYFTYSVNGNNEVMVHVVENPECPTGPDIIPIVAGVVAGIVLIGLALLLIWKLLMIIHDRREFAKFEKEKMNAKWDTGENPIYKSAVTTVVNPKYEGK

[3] = tested on: Ramos (B) lymphocyte adhesion to HUVE monolayers; experiment: Endothelial cell adhesion assay, Ramos cells on HUVE monolayers; assay type: cell-based, human; details: basal HUVE, peptides, Table X
Method: (§1) HUVEs were incubated with IL-1 β (1 ng/ml) or in some experiments with TNF α (10 ng/ml) for 6–24 hours. At the end of this incubation the HUVE monolayers were washed and used in the adhesion assay.
(§2) Human umbilical vein endothelial cells (HUVEs) were cultured in 48 well plates as described (supra). To measure adherence of lymphocytes to HUVE monolayer cultures, lymphocytes were labeled with Na2 ^51CrO4 (50 μCi/ml) for 2–4 hours), washed, and then 10^5 lymphocytes were incubated with HUVE monolayers in the presence or absence of inhibitory antibodies or CS-1 derived peptides. The lymphocytes were allowed to adhere for 30 minutes at 37°. Non-adherent cells were subsequently removed by washing with PBS, and the adherent cells were dissolved in SDS/NaOH. Bound ^51Cr-cpm were quantitated in a gamma counter. In some experiments, endothelial cells were activated prior to the adhesion assay by incubating with IL-1 β (1 ng/ml) or […] (10 ng/ml) for 6–24 hours in defined CS-100 media (Cell Systems, Seattle, Wash.).

[4] = tested on: Jurkat (T) lymphocyte adhesion to HUVE monolayers; experiment: Endothelial cell adhesion assay, Jurkat cells on HUVE monolayers; assay type: cell-based, human; details: basal HUVE, peptides, Table X
Method: as §1, §2

[5] = tested on: LAD (B) lymphocyte adhesion to HUVE monolayers; experiment: Endothelial cell adhesion assay, LAD cells on HUVE monolayers; assay type: cell-based, human; details: basal HUVE, peptides, Table X
Method: as §1, §2

integrin receptor α4β1 [6] = target: T1, integrin receptor α4β1; experiment: soluble peptide against 51Cr-Jurkat adhesion to plasma fibronectin (5 ug/ml coat); 50% inhibition point read from plot
Method: For these experiments in Table XIII ^51Cr-labeled Jurkat cells (10^5/well) were incubated in the presence of the varying concentrations (starting at 2 mg/ml) of the indicated peptides for 15 min.

integrin receptor α4β1 [7] = target: T1, integrin receptor α4β1; experiment: cell-based or functional assay; remark: listed apart in the source
integrin receptor α4β1 [8] = target: T1, integrin receptor α4β1; experiment: cell-based or functional assay; remark: listed apart in the source
integrin α5β1 = integrin α5β1 (human, UniProt P08648 42-1049; P05556 21-798); experiment: cell-based or functional assay
integrin α5β1, sequence (P08648 42-1049, chain 1 of 2): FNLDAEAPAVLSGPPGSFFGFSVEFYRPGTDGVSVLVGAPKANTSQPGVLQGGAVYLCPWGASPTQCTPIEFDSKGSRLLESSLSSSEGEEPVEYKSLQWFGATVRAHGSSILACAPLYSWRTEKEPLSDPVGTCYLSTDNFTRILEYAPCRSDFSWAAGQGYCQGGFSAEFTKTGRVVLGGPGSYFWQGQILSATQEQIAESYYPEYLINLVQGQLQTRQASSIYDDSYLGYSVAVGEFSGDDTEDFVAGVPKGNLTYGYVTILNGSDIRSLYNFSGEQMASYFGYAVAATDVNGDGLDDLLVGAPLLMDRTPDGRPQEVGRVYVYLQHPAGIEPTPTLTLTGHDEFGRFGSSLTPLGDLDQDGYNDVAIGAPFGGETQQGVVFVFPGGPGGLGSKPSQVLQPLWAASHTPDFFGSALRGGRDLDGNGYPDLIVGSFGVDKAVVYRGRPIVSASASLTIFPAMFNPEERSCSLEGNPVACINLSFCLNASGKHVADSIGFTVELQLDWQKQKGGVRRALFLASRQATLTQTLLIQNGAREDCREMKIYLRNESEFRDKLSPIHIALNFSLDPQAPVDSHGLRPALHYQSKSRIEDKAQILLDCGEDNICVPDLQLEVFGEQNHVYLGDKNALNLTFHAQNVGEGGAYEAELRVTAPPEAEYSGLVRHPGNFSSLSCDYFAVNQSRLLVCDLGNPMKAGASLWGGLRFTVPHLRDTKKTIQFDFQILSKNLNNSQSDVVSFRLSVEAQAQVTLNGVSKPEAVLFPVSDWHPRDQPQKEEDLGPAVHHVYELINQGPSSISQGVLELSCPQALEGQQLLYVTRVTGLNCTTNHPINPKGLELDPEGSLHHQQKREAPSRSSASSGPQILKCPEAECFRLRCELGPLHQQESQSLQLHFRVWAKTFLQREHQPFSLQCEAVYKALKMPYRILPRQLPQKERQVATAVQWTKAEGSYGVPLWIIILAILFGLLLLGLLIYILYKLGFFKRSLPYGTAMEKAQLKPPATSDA
integrin α5β1, sequence (P05556 21-798, chain 2 of 2): as the sequence (P05556 21-798, form in doubt, chain 2 of 2) above

integrin β1 subunit (human), sequence (P05556 21-798): as the sequence (P05556 21-798, form in doubt, chain 2 of 2) above

Molecule monoclonal antibody 8A2 has a concentration of 8A2 able to stimulate increased avidity of a low avidity α4β1 receptor complex for fibronectin, CS-1, or LDV minimal peptides [1] of 0.1 µg/mL.

With monoclonal antibody P4C10 the Adhesion (cpm), Jurkat (T) on HUVE monolayers, +IL-1β; SP2 control 372159 [1] was 230000 cpm, the Adhesion (cpm), Jurkat (T) on HUVE monolayers, Basal; SP2 control 83924 [1] was 36900 cpm and the Adhesion (cpm), LAD (B) on HUVE monolayers, +IL-1β; SP2 control 104672 [1] was 52600 cpm. It also gave an Adhesion (cpm), LAD (B) on HUVE monolayers, Basal; SP2 control 19542 [1] of 6360 cpm, an Adhesion (cpm), Ramos (B) on HUVE monolayers, +IL-1β; SP2 control 12157 [1] of 3150 cpm and an Adhesion (cpm), Ramos (B) on HUVE monolayers, Basal; SP2 control 972 [1] of 604 cpm.

For LDVPST peptide, the Adhesion (cpm), Jurkat (T) on HUVE, +IL-1β; no peptide 314848 (integrin receptor α4β1 [2]) was 326000 cpm, the Adhesion (cpm), Jurkat (T) on HUVE, Basal; no peptide 161092 (integrin receptor α4β1 [2]) was 167000 cpm and the Adhesion (cpm), LAD (B) on HUVE, +IL-1β; no peptide 71408 (integrin receptor α4β1 [2]) was 92800 cpm. For the same molecule, the Adhesion (cpm), LAD (B) on HUVE, Basal; no peptide 44860 (integrin receptor α4β1 [2]) was 39700 cpm, the Adhesion (cpm), Ramos (B) on HUVE, +IL-1β; no peptide 12936 (integrin receptor α4β1 [2]) was 15100 cpm and the Adhesion (cpm), Ramos (B) on HUVE, Basal; no peptide 2724 (integrin receptor α4β1 [2]) was 3530 cpm.

With “DELPQLVTLPHPNLHGPEILDVPST [Peptide 344, synthetic CS-1 peptide of the fibronectin IIICS region]” the “Adhesion (cpm) Basal” value [3] was 1660 cpm, the “Adhesion (cpm) Basal” value [4] was 29568 cpm and the “Adhesion (cpm) Basal” value [5] was 17500 cpm.

B1: B12 peptide (peptide)
peptide: LHGPEILDVPST
notes: also called CS-1-B12
Work on B1 yielded an IC50 (integrin receptor α4β1 [6]) of 400 µM.

B2: GPEILDVPST peptide (peptide)
peptide: GPEILDVPST
notes: also called peptide 354
In the case of B2, the IC50 (integrin receptor α4β1 [6]) is reported as 450 µM, the “Adhesion (cpm), Jurkat (T) on HUVE, +IL-1β; unrelated peptide 293(A) 129864” value (shortened to “Adhesion (cpm) … unrelated peptide 293(A) 129864”) (integrin receptor α4β1 [7]) is reported as 89700 cpm and the “Adhesion (cpm), LAD (B) on HUVE, +IL-1β; unrelated peptide 293A 74096” value (“Adhesion (cpm) … unrelated peptide 293A 74096” below) (integrin receptor α4β1 [7]) is reported as 27200 cpm. The “Adhesion (cpm), Ramos (B) on HUVE, +IL-1β; unrelated peptide 293A 11132” value (“Adhesion (cpm) … unrelated peptide 293A 11132” for short) (integrin receptor α4β1 [7]) was 2260 cpm.

B3: EILDV peptide (peptide)
peptide: EILDV
For B3, the IC50 (integrin receptor α4β1 [6]) was 660 µM.

B4: VPST peptide (peptide)
peptide: VPST
In the case of B4, the “Adhesion (cpm), Jurkat (T) on HUVE, +IL-1β; no peptide 314848” value (“Adhesion (cpm), Jurkat … no peptide 314848” below) (integrin receptor α4β1 [8]) is reported as 322000 cpm, the “Adhesion (cpm), Jurkat (T) on HUVE, Basal; no peptide 161092” value (“Adhesion (cpm), Jurkat … no peptide 161092” below) (integrin receptor α4β1 [8]) is reported as 204000 cpm and the “Adhesion (cpm), LAD (B) on HUVE, +IL-1β; no peptide 71408” value (from here on “Adhesion (cpm), LAD … no peptide 71408”) (integrin receptor α4β1 [8]) is reported as 98900 cpm. For the same molecule, the “Adhesion (cpm), LAD (B) on HUVE, Basal; no peptide 44860” value (“Adhesion (cpm), LAD … no peptide 44860” for short) (integrin receptor α4β1 [8]) was 38200 cpm, the “Adhesion (cpm), Ramos (B) on HUVE, +IL-1β; no peptide 12936” value (shortened to “Adhesion (cpm), Ramos … no peptide 12936”) (integrin receptor α4β1 [8]) was 15300 cpm and the “Adhesion (cpm), Ramos (B) on HUVE, Basal; no peptide 2724” value (“Adhesion (cpm), Ramos … no peptide 2724” below) (integrin receptor α4β1 [8]) was 4170 cpm. For the same molecule, the “Adhesion (cpm) … unrelated peptide 293(A) 129864” value (integrin receptor α4β1 [7]) was 128000 cpm, the “Adhesion (cpm) … unrelated peptide 293A 74096” value (integrin receptor α4β1 [7]) was 42700 cpm and the “Adhesion (cpm) … unrelated peptide 293A 11132” value (integrin receptor α4β1 [7]) was 4570 cpm.

B5: CS-1 peptide (peptide)
peptide: DELPQLVTLPHPNLHGPEILDVPST
notes: Free peptide; also called peptide 344; synthetic CS-1
For B5, the “Adhesion (cpm), Jurkat … no peptide 314848” value (integrin receptor α4β1 [8]) was 249000 cpm, the “Adhesion (cpm), Jurkat … no peptide 161092” value (integrin receptor α4β1 [8]) was 82400 cpm and the “Adhesion (cpm), LAD … no peptide 71408” value (integrin receptor α4β1 [8]) was 51600 cpm. The “Adhesion (cpm), LAD … no peptide 44860” value (integrin receptor α4β1 [8]) was 23000 cpm, the “Adhesion (cpm), Ramos … no peptide 12936” value (integrin receptor α4β1 [8]) was 5160 cpm and the “Adhesion (cpm), Ramos … no peptide 2724” value (integrin receptor α4β1 [8]) was 1840 cpm. The IC50 (integrin receptor α4β1 [6]) was 180 µM, the “Adhesion (cpm) … unrelated peptide 293(A) 129864” value (integrin receptor α4β1 [7]) was 75800 cpm and the “Adhesion (cpm) … unrelated peptide 293A 74096” value (integrin receptor α4β1 [7]) was 26200 cpm. The “Adhesion (cpm) … unrelated peptide 293A 11132” value (integrin receptor α4β1 [7]) was 2830 cpm.

B6: RGDS peptide (peptide)
peptide: RGDS
B6 was tested, and the “Adhesion (cpm), Jurkat … no peptide 314848” value (integrin α5β1) was 358000 cpm, the “Adhesion (cpm), Jurkat … no peptide 161092” value (integrin α5β1) was 299000 cpm and the “Adhesion (cpm), LAD … no peptide 71408” value (integrin α5β1) was 102000 cpm. The “Adhesion (cpm), LAD … no peptide 44860” value (integrin α5β1) was 70700 cpm, the “Adhesion (cpm), Ramos … no peptide 12936” value (integrin α5β1) was 28100 cpm and the “Adhesion (cpm), Ramos … no peptide 2724” value (integrin α5β1) was 16900 cpm.
